B1: activated protein C (APC) (protein)
chain 1: ANSFLEELRHSSLERECIEEICDFEEAKEIFQNVDDTLAFWSKHVDGDQCLVLPLEHPCASLCCGHGTCIDGIGSFSCDCRSGWEGRFCQREVSFLNCSLDNGGCTHYCLEEVGWRRCSCAPGYKLGDDLLQCHPAVKFPCGRPWKRMEKKRSHL
chain 2: LIDGKMTRRGDSPWQVVLLDSKKKLACGAVLIHPSWVLTAAHCMDESKKLLVRLGEYDLRRWEKWELDLDIKEVFVHPNYSKSTTDNDIALLHLAQPATLSQTIVPICLPDSGLAERELNQAGQETLVTGWGYHSSREKEAKRNRTFVLNFIKIPVVPHNECSEVMSNMVSENMLCAGILGDRQDACEGDSGGPMVASFHGTWFLVGLVSWGEGCGLLHNYGVYTKVSRYLDWIHGHIRDKEAPQKSWAP
B2: Angiopoietin-2 (Ang2) (protein)
chain: YNNFRKSMDSIGKKQYQVQHGSCSYTFLLPEMDNCRSSSSPYVSNAVQRDAPLEYDDSVQRLQVLENIMENNTQWLMKLENYIQDNMKKEMVEIQQNAVQNQTAVMIEIGTNLLNQTAEQTRKLTDVEAQVLNQTTRLELQLLEHSLSTNKLEKQILDQTSEINKLQDKNSFLEKKVLAMEDKHIIQLQSIKEEKDQLQVLVSKQNSIIEELEKKIVTATVNNSVLQKQQHDLMETVNNLLTMMSTSNSAKDPTVAKEEQISFRDCAEVFKSGHTTNGIYTLTFPNSTEEIKAYCDMEAGGGGWTIIQRREDGSVDFQRTWKEYKVGFGNPSGEYWLGNEFVSQLTNQQRYVLKIHLKDWEGNEAYSLYEHFYLSSEELNYRIHLKGLTGTAGKISSISQPGNDFSTKDGDNDKCICKCSQMLTGGWWFDACGPSNLNGMYYPQRQNTNKFNGIKWYYWKGSGYSLKATTMMIRPADF
B3: Angiopoietin-1 (Ang1) (protein)
chain: HIGCSNQRRSPENSGRRYNRIQHGQCAYTFILPEHDGNCRESTTDQYNTNALQRDAPHVEPDFSSQKLQHLEHVMENYTQWLQKLENYIVENMKSEMAQIQQNAVQNHTATMLEIGTSLLSQTAEQTRKLTDVETQVLNQTSRLEIQLLENSLSTYKLEKQLLQQTNEILKIHEKNSLLEHKILEMEGKHKEELDTLKEEKENLQGLVTRQTYIIQELEKQLNRATTNNSVLQKQQLELMDTVHNLVNLCTKEGVLLKGGKREEEKPFRDCADVYQAGFNKSGIYTIYINNMPEPKKVFCNMDVNGGGWTVIQHREDGSLDFQRGWKEYKMGFGNPSGEYWLGNEFIFAITSQRQYMLRIELMDWEGNRAYSQYDRFHIGNEKQNYRLYLKGHTGTAGKQSSLILHGADFSTKDADNDNCMCKCALMLTGGWWFDACGPSNLNGMFYTAGQNHGKLNGIKWHYFKGPSYSLRSTTMMIRPLDF

Molecular target: T1, Tie2 (Homo sapiens, UniProt Q02763)
T1 chain: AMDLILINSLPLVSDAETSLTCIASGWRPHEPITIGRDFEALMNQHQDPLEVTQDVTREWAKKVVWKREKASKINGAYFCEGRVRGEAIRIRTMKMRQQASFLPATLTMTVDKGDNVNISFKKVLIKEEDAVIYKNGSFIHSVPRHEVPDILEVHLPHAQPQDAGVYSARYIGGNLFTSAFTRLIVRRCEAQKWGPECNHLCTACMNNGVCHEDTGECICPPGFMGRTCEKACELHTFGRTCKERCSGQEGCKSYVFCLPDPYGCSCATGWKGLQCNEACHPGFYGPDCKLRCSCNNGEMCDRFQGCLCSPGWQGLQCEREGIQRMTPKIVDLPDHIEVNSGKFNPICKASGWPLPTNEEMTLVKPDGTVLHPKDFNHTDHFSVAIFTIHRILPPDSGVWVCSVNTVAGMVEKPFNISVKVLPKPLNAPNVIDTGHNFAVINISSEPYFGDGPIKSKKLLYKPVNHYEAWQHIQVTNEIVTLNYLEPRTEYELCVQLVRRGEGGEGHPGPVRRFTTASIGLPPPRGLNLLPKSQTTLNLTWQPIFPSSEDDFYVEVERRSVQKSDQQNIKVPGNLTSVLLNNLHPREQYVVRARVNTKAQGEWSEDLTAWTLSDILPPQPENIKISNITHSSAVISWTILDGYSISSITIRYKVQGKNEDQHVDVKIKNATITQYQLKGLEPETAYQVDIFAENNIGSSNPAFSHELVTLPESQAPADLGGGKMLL
Test: SPR (Biacore)

Binder	Kd [pM]
B1	3
B2	32
B3	2
